In PMC9278865:

Molecular target: wt ACE2_(615)-Fc (M27) (human) (UniProt Q9BYF1)
Experiment: SPR

Chain of wt ACE2_(615)-Fc (M27) (human) (Q9BYF1 18-615): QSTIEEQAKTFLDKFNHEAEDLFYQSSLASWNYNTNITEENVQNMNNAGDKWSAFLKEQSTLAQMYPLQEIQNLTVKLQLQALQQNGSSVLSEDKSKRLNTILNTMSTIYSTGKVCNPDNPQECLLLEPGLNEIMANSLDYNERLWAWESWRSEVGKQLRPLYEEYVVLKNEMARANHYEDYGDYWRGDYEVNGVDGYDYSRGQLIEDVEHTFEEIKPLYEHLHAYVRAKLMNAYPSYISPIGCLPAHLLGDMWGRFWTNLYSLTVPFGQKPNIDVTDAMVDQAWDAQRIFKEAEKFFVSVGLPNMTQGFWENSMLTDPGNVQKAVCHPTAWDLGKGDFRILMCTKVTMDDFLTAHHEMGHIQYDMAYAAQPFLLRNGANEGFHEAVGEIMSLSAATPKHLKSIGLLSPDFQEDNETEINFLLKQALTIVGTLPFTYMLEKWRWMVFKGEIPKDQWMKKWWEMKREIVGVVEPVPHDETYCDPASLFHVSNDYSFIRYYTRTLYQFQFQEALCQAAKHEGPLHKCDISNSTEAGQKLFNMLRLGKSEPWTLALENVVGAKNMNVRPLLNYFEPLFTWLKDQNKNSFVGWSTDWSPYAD

Q: “SARS-CoV RBD (residues 306 to 577) (domain or fragment)” was tested. Which fold lower affinity than RBDwt on M27 did it give?
A: 5 fold
